The record followed here is article PMC11898703.

The assay addresses FliW-T25 (Clostridioides difficile) (UniProt Q18CX4). The assay can be described thus: two-hybrid; bacterial two-hybrid (BACTH) in E. coli BTH101 read by β-galactosidase assay on cell lysates (10^10 CFU, bead beating in Z buffer, ONPG, ΔOD420 over 1 h).

Take TcdR-T18 (natural protein): the fold increase in β-galactosidase activity over the TcdR-T18 + T25 control is 2 fold.
